The data set deals with GFP-SAPwt (SAP domain of SAF-A) (UniProt Q00839 8-42). Briefly: EMSA. (A gel shift assay detects complexes by their altered migration in electrophoresis.)
Sequence of GFP-SAPwt (SAP domain of SAF-A) (Q00839 8-42): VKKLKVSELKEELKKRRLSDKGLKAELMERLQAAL

B1: AT-rich SAR DNA (dsDNA)
DNA 1: AATTCAGAAAATAATAAAATAAAACTAGCTATTTTATATTTTTTC
DNA 2: GAAAAAATATAAAATAGCTAGTTTTATTTTATTATTTTCTGAATT
The Kd is a measure of binding affinity in units of concentration. High values mean lower affinity, low ones higher affinity. On to B1, for which the affinity, expressed as Kd, was 16.5 µM.
